{
  "source": "patent US20100040604A1",
  "key": {"[1]": {"target": "recombinant human TNFα (rhTNFα) (human) (UniProt P01375)", "sequence (P01375 77-233 limits assumed)": "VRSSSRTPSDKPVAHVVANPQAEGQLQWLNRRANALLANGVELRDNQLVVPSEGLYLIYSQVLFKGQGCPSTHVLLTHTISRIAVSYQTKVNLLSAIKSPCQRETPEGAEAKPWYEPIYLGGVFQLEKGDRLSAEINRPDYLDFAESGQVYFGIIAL", "assay": "cell-based or functional assay"}, "[2]": {"target": "recombinant human TNFα (rhTNFα) (human) (UniProt P01375)", "assay": "SPR (BIAcore), summary table"}, "[3]": {"target": "recombinant human TNFα (rhTNFα) (human) (UniProt P01375)", "assay": "SPR (BIAcore), biotinylated rhTNFα on streptavidin chip; [Ab] 3 nM"}, "[4]": {"target": "recombinant human TNFα (rhTNFα) (human) (UniProt P01375)", "assay": "SPR (BIAcore), biotinylated rhTNFα on streptavidin chip; [Ab] 6 nM"}, "[5]": {"target": "recombinant human TNFα (rhTNFα) (human) (UniProt P01375)", "assay": "SPR (BIAcore), biotinylated rhTNFα on streptavidin chip; [Ab] 13 nM"}, "[6]": {"target": "recombinant human TNFα (rhTNFα) (human) (UniProt P01375)", "assay": "SPR (BIAcore), biotinylated rhTNFα on streptavidin chip; [Ab] 25 nM"}, "[7]": {"target": "recombinant human TNFα (rhTNFα) (human) (UniProt P01375)", "assay": "SPR (BIAcore), biotinylated rhTNFα on streptavidin chip; [Ab] 50 nM"}, "[8]": {"target": "recombinant human TNFα (rhTNFα) (human) (UniProt P01375)", "assay": "SPR (BIAcore), biotinylated rhTNFα on streptavidin chip; [Ab] 100 nM"}, "[9]": {"target": "recombinant human TNFα (rhTNFα) (human) (UniProt P01375)", "assay": "SPR (BIAcore), biotinylated rhTNFα on streptavidin chip; [Ab] 200 nM"}, "[10]": {"target": "recombinant human TNFα (rhTNFα) (human) (UniProt P01375)", "assay": "SPR (BIAcore), biotinylated rhTNFα on streptavidin chip; [Ab] 400 nM"}, "[11]": {"target": "recombinant human TNFα (rhTNFα) (human) (UniProt P01375)", "assay": "SPR (BIAcore), biotinylated rhTNFα on streptavidin chip; average over the concentrations"}},
  "data": [
    {"substance": "MAK 195 F(ab′)2 fragment (murine anti-hTNFα mAb)", "values": [
      {"measurement": "IC50, neutralization of TNFα-induced L929 cytotoxicity", "setting": "[1]", "value": 62, "unit": "pM"},
      {"measurement": "Kd", "setting": "[2]", "value": 0.46, "unit": "nM"},
      {"measurement": "Stoichiometry", "setting": "[2]", "value": 1.4},
      {"measurement": "koff", "setting": "[2]", "value": "8.7e-05", "unit": "s⁻¹"},
      {"measurement": "kon", "setting": "[2]", "value": 190000, "unit": "M⁻¹ s⁻¹"},
      {"measurement": "Ab, bound, RUs", "setting": "[3]", "value": 231, "unit": "RU"},
      {"measurement": "koff", "setting": "[3]", "value": "6.95e-05", "unit": "s⁻¹"},
      {"measurement": "rhTNFα/Ab", "setting": "[3]", "value": 0.26},
      {"measurement": "Ab, bound, RUs", "setting": "[4]", "value": 433, "unit": "RU"},
      {"measurement": "koff", "setting": "[4]", "value": "7.37e-05", "unit": "s⁻¹"},
      {"measurement": "rhTNFα/Ab", "setting": "[4]", "value": 0.47},
      {"measurement": "Ab, bound, RUs", "setting": "[5]", "value": 708, "unit": "RU"},
      {"measurement": "koff", "setting": "[5]", "value": "3.66e-05", "unit": "s⁻¹"},
      {"measurement": "rhTNFα/Ab", "setting": "[5]", "value": 0.78},
      {"measurement": "Ab, bound, RUs", "setting": "[6]", "value": 957, "unit": "RU"},
      {"measurement": "koff", "setting": "[6]", "value": "4.41e-05", "unit": "s⁻¹"},
      {"measurement": "rhTNFα/Ab", "setting": "[6]", "value": 1.09},
      {"measurement": "Ab, bound, RUs", "setting": "[7]", "value": 1110, "unit": "RU"},
      {"measurement": "koff", "setting": "[7]", "value": "3.67e-05", "unit": "s⁻¹"},
      {"measurement": "rhTNFα/Ab", "setting": "[7]", "value": 1.32},
      {"measurement": "Ab, bound, RUs", "setting": "[8]", "value": 1140, "unit": "RU"},
      {"measurement": "koff", "setting": "[8]", "value": "3.54e-05", "unit": "s⁻¹"},
      {"measurement": "rhTNFα/Ab", "setting": "[8]", "value": 1.39},
      {"measurement": "Ab, bound, RUs", "setting": "[9]", "value": 1080, "unit": "RU"},
      {"measurement": "koff", "setting": "[9]", "value": "4.54e-05", "unit": "s⁻¹"},
      {"measurement": "rhTNFα/Ab", "setting": "[9]", "value": 1.38},
      {"measurement": "Ab, bound, RUs", "setting": "[10]", "value": 881, "unit": "RU"},
      {"measurement": "koff", "setting": "[10]", "value": "5.38e-05", "unit": "s⁻¹"},
      {"measurement": "rhTNFα/Ab", "setting": "[10]", "value": 1.2},
      {"measurement": "koff", "setting": "[11]", "value": "4.94e-05", "unit": "s⁻¹"}
    ]}
  ]
}
